# Reference: US20090252727A1 (Eli Lilly, published 2009)
# Numbering of substitutions follows the chain as printed.
# T1: cynomologous monkey glucagon receptor (cynomologous monkey, UniProt P47871 27-477 (human entry))
# T1 construct: Cloned receptor expressed in 293HEK cells; also called cyno GluR; cyno GlucR
# T1 chain: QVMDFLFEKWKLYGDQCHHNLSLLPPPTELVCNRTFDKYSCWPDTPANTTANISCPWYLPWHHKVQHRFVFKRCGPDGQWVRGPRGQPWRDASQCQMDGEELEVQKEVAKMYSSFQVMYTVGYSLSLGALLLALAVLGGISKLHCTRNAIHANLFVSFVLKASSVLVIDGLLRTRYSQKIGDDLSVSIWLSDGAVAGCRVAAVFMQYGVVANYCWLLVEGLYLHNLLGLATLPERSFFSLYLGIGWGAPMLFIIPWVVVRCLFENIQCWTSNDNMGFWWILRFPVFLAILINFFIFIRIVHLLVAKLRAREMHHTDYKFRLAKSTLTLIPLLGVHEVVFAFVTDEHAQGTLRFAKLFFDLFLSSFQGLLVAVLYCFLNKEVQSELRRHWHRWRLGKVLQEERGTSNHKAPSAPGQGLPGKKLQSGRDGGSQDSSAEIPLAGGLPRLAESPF
# T2: mouse glucagon receptor (mouse, UniProt Q61606 28-485)
# T2 construct: Cloned receptor expressed in 293HEK cells; also called murine GluR; mouse GlucR
# T2 chain: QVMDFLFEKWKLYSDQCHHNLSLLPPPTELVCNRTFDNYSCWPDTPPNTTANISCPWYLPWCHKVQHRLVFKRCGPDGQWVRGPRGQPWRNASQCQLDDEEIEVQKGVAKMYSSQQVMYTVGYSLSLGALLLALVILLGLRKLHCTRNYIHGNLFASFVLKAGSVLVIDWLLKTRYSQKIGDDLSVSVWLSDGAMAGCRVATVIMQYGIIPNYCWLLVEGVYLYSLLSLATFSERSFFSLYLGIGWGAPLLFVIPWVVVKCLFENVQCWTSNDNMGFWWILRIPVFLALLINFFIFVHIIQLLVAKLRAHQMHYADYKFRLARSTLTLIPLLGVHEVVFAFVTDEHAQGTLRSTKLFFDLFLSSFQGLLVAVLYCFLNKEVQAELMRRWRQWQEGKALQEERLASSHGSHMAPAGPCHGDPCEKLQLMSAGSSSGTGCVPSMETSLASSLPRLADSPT
# B1: Fab fragment of antibody example 4 (Fab4) (Fab, V domains shown)
# VH: QVQLQESGPGLVKPSETLSLTCTVSGDDITSGYHDWIRQPPGKGLEWIGYISYSGSTYYSPSLKSRVTISVDTSKNQFSLKLSSVTAADTAVYYCARPPGYYGFGPYALDYWGQGTLVTVSS
# VL: DIQMTQSPSSLSASVGDRVTITCSASSSVSYIHWYQQKPGKAPKLLIYTTSYLAHGVPSRFSGSGSGTDFTLTISSLQPEDFATYYCQQRSTLPPTFGGGTKVEIKR
# notes: Expressed in E. coli; Fab = VL+CL and VH+CH1 (Fc absent); not shown: His tag
# B2: Antibody of example 4 (Ab4) (antibody, human IgG4 S228P, kappa, F234A L235A, V domains shown)
# VH: B1 VH
# VL: B1 VL
# notes: Humanized full antibody with kappa light chain and modified human IgG4 Fc
# B3: Antibody of example 6 (Ab6) (antibody, human IgG4 S228P, kappa, F234A L235A, V domains shown)
# VH: B1 VH with G100A
# VL: B1 VL
# notes: as for B2
# B4: Fab fragment of antibody example 6 (Fab, V domains shown)
# VH: B1 VH with G100A
# VL: B1 VL
# notes: Expressed in E. coli; Fab = VL+CL and VH+CH1 (Fc absent); also called Fab of Ab6; not shown: His tag
# B5: Antibody of example 3 (Ab3) (antibody, human IgG4 S228P, kappa, F234A L235A, V domains shown)
# VH: B1 VH with H34W
# VL: B1 VL with Q88L
# notes: as for B2
# B6: Antibody of example 2 (Ab2) (antibody, human IgG4 S228P, kappa, F234A L235A, V domains shown)
# VH: B1 VH with H34W, D35N, S60I, L109M
# VL: B1 VL with A25Y, I32M, Y52N
# notes: as for B2
# B7: Fab fragment of antibody example 2 (Fab, V domains shown)
# VH: B1 VH with H34W, D35N, S60I, L109M
# VL: B1 VL with A25Y, I32M, Y52N
# notes: Expressed in E. coli; Fab = VL+CL and VH+CH1 (Fc absent); also called Fab of Ab2; not shown: His tag
# B8: Antibody of example 5 (Ab5) (antibody, human IgG4 S228P, kappa, F234A L235A, V domains shown)
# VH: B1 VH with Y58Q
# VL: B1 VL
# notes: as for B2
# B9: Antibody of example 7 (Ab7) (antibody, human IgG4 S228P, kappa, F234A L235A, V domains shown)
# VH: B1 VH with D35E, Y58S, G100A
# VL: B1 VL
# notes: as for B2
# B10: Fab fragment of antibody example 3 (Fab, V domains shown)
# VH: B1 VH with H34W
# VL: B1 VL with Q88L
# notes: Expressed in E. coli; Fab = VL+CL and VH+CH1 (Fc absent); also called Fab of Ab3; not shown: His tag
# B11: Fab fragment of antibody example 5 (Fab, V domains shown)
# VH: B1 VH with Y58Q
# VL: B1 VL
# notes: Expressed in E. coli; Fab = VL+CL and VH+CH1 (Fc absent); also called Fab of Ab5; not shown: His tag
# B12: Fab fragment of antibody example 7 (Fab, V domains shown)
# VH: B1 VH with D35E, Y58S, G100A
# VL: B1 VL
# notes: Expressed in E. coli; Fab = VL+CL and VH+CH1 (Fc absent); also called Fab of Ab7; not shown: His tag
# B13: Fab fragment of antibody example 1 (Fab, V domains shown)
# VH: B1 VH with H34W
# VL: B1 VL with I32M, Y52N, Q89W
# notes: Expressed in E. coli; Fab = VL+CL and VH+CH1 (Fc absent); also called Fab of Ab1; not shown: His tag
# B14: Antibody of example 1 (Ab1) (antibody, human IgG4 S228P, kappa, F234A L235A, V domains shown)
# VH: B1 VH with H34W
# VL: B1 VL with I32M, Y52N, Q89W
# notes: as for B2
# Molecular target: T3, rat glucagon receptor (rat, UniProt P30082 28-485)
# T3 construct: Cloned receptor expressed in 293HEK cells; also called rat GluR; rat GlucR
# Experiment: competition with [125I]glucagon, SPA, membranes of 293HEK cells expressing the receptor
row,Ki [nM],Binder
1,< 50,B1
2,< 50,B2
3,< 50,B3
4,< 50,B4
5,< 50,B5
6,< 50,B6
7,< 50,B7
8,< 50,B8
9,< 50,B9
10,< 50,B10
11,< 50,B11
12,< 50,B12
13,< 50,B13
14,< 50,B14

# Molecular target: T1, cynomologous monkey glucagon receptor
# Experiment: as above
row,Ki [nM],Binder
1,< 50,B1
2,< 50,B2
3,< 50,B3
4,< 50,B4
5,< 50,B5
6,< 50,B6
7,< 50,B7
8,< 50,B8
9,< 50,B9
10,< 50,B10
11,< 50,B11
12,< 50,B12
13,< 50,B13
14,< 50,B14

# Molecular target: T2, mouse glucagon receptor
# Experiment: as above
row,Ki [nM],Binder
1,< 50,B1
2,< 50,B2
3,< 50,B3
4,< 50,B4
5,< 50,B5
6,< 50,B6
7,< 50,B7
8,< 50,B8
9,< 50,B9
10,< 50,B10
11,< 50,B11
12,< 50,B12
13,< 50,B13
14,< 50,B14

# Molecular target: T4, human glucagon receptor (human, UniProt P47871 27-477)
# T4 construct: Cloned receptor expressed in 293HEK cells; also called human GluR; human GlucR
# Experiment: as above
row,Ki [nM],Binder
1,< 50,B1
2,< 50,B2
3,< 50,B3
4,< 50,B4
5,< 50,B5
6,< 50,B6
7,< 50,B7
8,< 50,B8
9,< 50,B9
10,< 50,B10
11,< 50,B11
12,< 50,B12
13,< 50,B13
14,< 50,B14

# Molecular target: T3, rat glucagon receptor
# Experiment: as above
# Remark: another data set of the same source
# Procedure: (§1) A competitive receptor/ligand binding experiment is adapted to a scintillation proximity assay (SPA) format. Incubations are performed in clear bottom, opaque 96-well microplates. Compound is serially diluted 3-fold in binding buffer consisting of 25 mM Hepes, pH 7.4, 2.5 mM CaCl₂, 1 mM MgCl₂, 0.1% fatty acid free BSA, 0.003% tween-20 and Complete^R EDTA-free protease inhibitor tablets. […] Plates are sealed with adhesive sealing tape, mixed end over end, and incubated at room temperature for 12 hours. The radioactivity bound to the receptor (in close proximity to the WGA SPA bead) is quantified on a PE Life and Analytical Sciences Trilux Microbeta plate scintillation counter and expressed as counts per minute (CPM).
row,Ki [nM],Binder
1,3.3,B1
2,1.24,B2

# Molecular target: T1, cynomologous monkey glucagon receptor
# Experiment: as above
# Remark: another data set of the same source
# Procedure: as §1
row,Ki [nM],Binder
1,9.42,B1
2,6,B2

# Molecular target: T2, mouse glucagon receptor
# Experiment: as above
# Remark: another data set of the same source
# Procedure: as §1
row,Ki [nM],Binder
1,2.43,B1
2,0.83,B2

# Molecular target: T4, human glucagon receptor
# Experiment: as above
# Remark: another data set of the same source
# Procedure: as §1
row,Ki [nM],Binder
1,2.9,B1
2,1.34,B2
